The source of these data is article doi:10.1101/2022.06.06.494913 (bioRxiv, 2022).

The target of this test is EIIA^Glc (UniProt P69783 2-169). Description: SPR + ELISA.
Sequence of EIIA^Glc (P69783 2-169): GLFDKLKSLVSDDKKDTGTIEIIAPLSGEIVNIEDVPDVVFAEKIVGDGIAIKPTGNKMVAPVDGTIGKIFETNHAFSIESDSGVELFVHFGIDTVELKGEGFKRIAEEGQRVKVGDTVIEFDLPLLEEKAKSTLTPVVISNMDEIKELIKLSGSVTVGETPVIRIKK

B1: EIIB^Glc (domain or fragment)
chain: EDATEDAKATGTSEMAPALVAAFGGKENITNLDACITRLRVSVADVSKVDQAGLKKLGAAGVVVAGSGVQAIFGTKSDNLKTEMDEYIRN
A word on the Kd: it is the constant that tells how readily two partners part at equilibrium. For the molecule B1, the Kd is greater than 10 µM.
